Measured values published in paper PMC7526454 (JCI Insight, 2020).
Where “and” joins values, the source holds several entries; their conditions need not be identical. Equal entries are not always repeated. Starred links: 1 amine or outer side, 2 acyl side, 3 side chain; linkers in the order of their positions; H or OH if unused. Non-standard residues stand in square brackets, D forms with d. Groups on a side chain read outwards from the residue. No end group written: not given here. *: point of attachment. C20 diacid = O=C(O)CCCCCCCCCCCCCCCCCCC(=O)*; γGlu = O=C(O)[C@H](CCC(=O)[*:2])N[*:1]; AEEA = NCCOCCOCC(=O)O; Aib = CC(C)(N)C(=O)O

Tests used:
[1] = native ligand, during meal induced incretin secretion; cited from earlier work
pancreatic islets = assay: Pancreatic islet perifusion, insulin secretion; conditions: ex vivo perifusion, male mice, iAUC; GLP-1 300 pM, GIP 3 nM (after 1 μM Ex9), tirzepatide 1 nM
[2] = target: mouse GLP-1R–LgBiT (mouse) (UniProt O35659)
[3] = target: T1, human GIP receptor (GIPR) (human, UniProt P48546-1 22-466); assay: radioligand binding; conditions: one partner purified
T1 construct: human GIPR (NP_000155), untagged, expressed in HEK293 cells at low, medium or high density; also called glucose-dependent insulinotropic polypeptide receptor; source: HEK293 clonal cell lines, stably transfected (pcDNA3.1)
T1 sequence (looked up): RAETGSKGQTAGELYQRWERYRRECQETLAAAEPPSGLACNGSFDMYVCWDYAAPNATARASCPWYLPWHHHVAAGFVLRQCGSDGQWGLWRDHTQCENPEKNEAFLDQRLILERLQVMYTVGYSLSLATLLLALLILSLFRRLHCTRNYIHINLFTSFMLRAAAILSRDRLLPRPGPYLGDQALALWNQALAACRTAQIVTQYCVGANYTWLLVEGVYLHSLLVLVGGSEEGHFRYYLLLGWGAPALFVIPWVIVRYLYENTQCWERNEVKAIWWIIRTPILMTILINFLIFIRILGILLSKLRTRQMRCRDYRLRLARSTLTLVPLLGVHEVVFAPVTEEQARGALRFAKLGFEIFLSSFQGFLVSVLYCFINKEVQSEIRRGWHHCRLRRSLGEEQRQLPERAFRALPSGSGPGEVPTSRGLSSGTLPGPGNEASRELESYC

[4] = target: T1, human GIP receptor (GIPR); assay: cell-based or functional assay
[5] = target: T1, human GIP receptor (GIPR); assay: radioligand binding; competition with [125I]GIP(1-42)OH (GIPR) or [125I]GLP-1(7-36)NH2 (GLP-1R), ~0.12–0.20 nM, on membranes of HEK293 cells expressing the human receptor held on WGA-PVT SPA beads; 1.0 mM MgCl2, 2.5 mM CaCl2, 0.003% w/v Tween-20, 0.1% w/v bacitracin, 25 mM HEPES pH 7.4; 18 hours at room temperature; Ki by the Cheng-Prussoff correction; conditions: one partner purified

Chain of mouse GLP-1R–LgBiT (mouse) (O35659 22-463): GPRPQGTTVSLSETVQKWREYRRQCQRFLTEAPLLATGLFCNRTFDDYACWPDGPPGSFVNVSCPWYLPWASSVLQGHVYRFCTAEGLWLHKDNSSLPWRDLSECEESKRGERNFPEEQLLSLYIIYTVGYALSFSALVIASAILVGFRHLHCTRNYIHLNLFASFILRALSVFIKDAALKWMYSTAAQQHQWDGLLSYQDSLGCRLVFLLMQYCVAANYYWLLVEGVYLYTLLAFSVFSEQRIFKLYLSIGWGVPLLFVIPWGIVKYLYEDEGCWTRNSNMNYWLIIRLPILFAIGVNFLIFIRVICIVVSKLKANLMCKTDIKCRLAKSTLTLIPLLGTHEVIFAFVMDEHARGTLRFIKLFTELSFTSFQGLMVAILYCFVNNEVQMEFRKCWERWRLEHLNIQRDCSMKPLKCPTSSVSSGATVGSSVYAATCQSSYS

Question: Which “Css (free): range of Cmax values” [1] does the source give for `CC[C@H](C)[C@H](NC(=O)[C@H](Cc1ccccc1)NC(=O)[C@H](CCC(=O)O)NC(=O)[C@H](CCCCN)NC(=O)[C@H](C)NC(=O)[C@H](C)NC(=O)[C@H](CCC(N)=O)NC(=O)CNC(=O)[C@H](CCC(=O)O)NC(=O)[C@H](CC(C)C)NC(=O)[C@H](Cc1ccc(O)cc1)NC(=O)[C@H](CO)NC(=O)[C@H](CO)NC(=O)[C@@H](NC(=O)[C@H](CC(=O)O)NC(=O)[C@H](CO)NC(=O)[C@@H](NC(=O)[C@H](Cc1ccccc1)NC(=O)[C@@H](NC(=O)CNC(=O)[C@H](CCC(=O)O)NC(=O)[C@H](C)NC(=O)[C@@H](N)Cc1c[nH]cn1)[C@@H](C)O)[C@@H](C)O)C(C)C)C(=O)N[C@@H](C)C(=O)N[C@@H](Cc1c[nH]c2ccccc12)C(=O)N[C@@H](CC(C)C)C(=O)N[C@H](C(=O)N[C@@H](CCCCN)C(=O)NCC(=O)N[C@@H](CCCNC(=N)N)C(N)=O)C(C)C` [GLP-1(7-36), GLP-1(7-36)NH2] here?
Answer: 5-15^E pM

Question: What about the “insulin secretion of Arrb1βcell–/– islets compared with control islets” value (pancreatic islets) of the same molecule?
Answer: secreted more insulin

Question: For Tirzepatide (LY3298176) (peptide), which other [2] is on record?
Answer: 6.6 nM and 2.4 nM

Question: With `CC[C@H](C)[C@H](NC(=O)[C@H](CO)NC(=O)[C@H](Cc1ccc(O)cc1)NC(=O)[C@H](CC(=O)O)NC(=O)[C@H](CO)NC(=O)[C@@H](NC(=O)[C@H](Cc1ccccc1)NC(=O)[C@@H](NC(=O)CNC(=O)[C@H](CCC(=O)O)NC(=O)[C@H](C)NC(=O)[C@@H](N)Cc1ccc(O)cc1)[C@@H](C)O)[C@@H](C)CC)C(=O)N[C@@H](C)C(=O)N[C@@H](CCSC)C(=O)N[C@@H](CC(=O)O)C(=O)N[C@@H](CCCCN)C(=O)N[C@H](C(=O)N[C@@H](Cc1c[nH]cn1)C(=O)N[C@@H](CCC(N)=O)C(=O)N[C@@H](CCC(N)=O)C(=O)N[C@@H](CC(=O)O)C(=O)N[C@@H](Cc1ccccc1)C(=O)N[C@H](C(=O)N[C@@H](CC(N)=O)C(=O)N[C@@H](Cc1c[nH]c2ccccc12)C(=O)N[C@@H](CC(C)C)C(=O)N[C@@H](CC(C)C)C(=O)N[C@@H](C)C(=O)N[C@@H](CCC(N)=O)C(=O)N[C@@H](CCCCN)C(=O)NCC(=O)N[C@@H](CCCCN)C(=O)N[C@@H](CCCCN)C(=O)N[C@@H](CC(N)=O)C(=O)N[C@@H](CC(=O)O)C(=O)N[C@@H](Cc1c[nH]c2ccccc12)C(=O)N[C@@H](CCCCN)C(=O)N[C@@H](Cc1c[nH]cn1)C(=O)N[C@@H](CC(N)=O)C(=O)N[C@H](C(=O)N[C@H](C(=O)N[C@@H](CCC(N)=O)C(N)=O)[C@@H](C)O)[C@@H](C)CC)C(C)C)[C@@H](C)CC` [GIP(1-42), GIP(1-42)NH2] as the molecule, how does the “insulin secretion of Arrb1βcell–/– islets compared with control islets” value (pancreatic islets) read?
Answer: not different

Question: For Y[Aib]EGTFTSDYSI[Aib]LDKIAQK([AEEA-AEEA-γGlu-C20 diacid])AFVQWLIAGGPSSGAPPPS-NH2 [Tirzepatide (LY3298176)], which Ki [3] is on record?
Answer: 0.163 nM

B1: Semaglutide (peptide)
chain: HAEGTFTSDVSSYLEGQAAKEFIAWLVRGRG
modifications: Aib at the 2nd residue (written X in the letters); C18 diacid-γGlu-(AEEA)2 on the lysine at the 20th residue
Question: With B1 as the molecule, how does the “EC50 of cAMP accumulation, HEK293 cells with low density of human GIPR (1,700 receptors/cell)” value [4] read?
Answer: > 850 nM

Question: What about the “EC50 of cAMP accumulation, HEK293 cells with medium density of human GIPR (6,400 receptors/cell)” value [4] of the same molecule?
Answer: > 100 nM

Question: What about the Ki [5] of the same molecule?
Answer: > 500 nM
